Measurements reported in the Human Domainome abundance scans (Beltran et al. 2025).
± gives the uncertainty stated by the source.

B1: Protein piccolo, residues 1058 to 1114; numbered along this chain, Q9Y6V0 (parent)
chain: TCPLCKTELNIGSKDPPNFNTCTECKNQVCNLCGFNPTPHLTEIQEWLCLNCQTQRA

Variants of: B1
Test: abundance fitness (aPCA) (normalised: wild type 0, dead -1); higher = more abundant; growth selection in yeast, the domain comes from the species named
Conditions: Homo sapiens

Point of comparison: TCPLCKTELNIGSKDPPNFNTCTECKNQVCNLCGFNPTNHLTEIQEWLCLNCQTQRA, abundance fitness -0.214 ± 0.21. Against it:
- TCPLCKTELNIGSKDPPNFNTCTECKNQVCNLCGFNTTPHLTEIQEWLCLNCQTQRA — within error, 0.079 ± 0.18
- TCPLCKTELNIGSKDPPNFNTCTECKNQVCNLCGFNVTPHLTEIQEWLCLNCQTQRA — higher, 0.14 ± 0.1
- TCPLCKTELNIGSKDPPNFNTCTECKNQVCNLCGFNWTPHLTEIQEWLCLNCQTQRA — within error, -0.012 ± 0.11
- TCPLCKTELNIGSKDPPNFNTCTECKNQVCNLCGFNYTPHLTEIQEWLCLNCQTQRA — within error, -0.451 ± 0.28
- TCPLCKTELNIGSKDPPNFNTCTECKNQVCNLCGFNPIPHLTEIQEWLCLNCQTQRA — within error, -0.143 ± 0.16
- TCPLCKTELNIGSKDPPNFNTCTECKNQVCNLCGFNPTAHLTEIQEWLCLNCQTQRA — within error, 0.018 ± 0.12
- TCPLCKTELNIGSKDPPNFNTCTECKNQVCNLCGFNPTCHLTEIQEWLCLNCQTQRA — within error, -0.115 ± 0.13
- TCPLCKTELNIGSKDPPNFNTCTECKNQVCNLCGFNPTDHLTEIQEWLCLNCQTQRA — within error, -0.117 ± 0.18
- TCPLCKTELNIGSKDPPNFNTCTECKNQVCNLCGFNPTFHLTEIQEWLCLNCQTQRA — within error, 0.025 ± 0.16
- TCPLCKTELNIGSKDPPNFNTCTECKNQVCNLCGFNPTGHLTEIQEWLCLNCQTQRA — within error, -0.211 ± 0.1
- TCPLCKTELNIGSKDPPNFNTCTECKNQVCNLCGFNPTHHLTEIQEWLCLNCQTQRA — within error, -0.393 ± 0.33
- TCPLCKTELNIGSKDPPNFNTCTECKNQVCNLCGFNPTIHLTEIQEWLCLNCQTQRA — within error, -0.013 ± 0.17
- TCPLCKTELNIGSKDPPNFNTCTECKNQVCNLCGFNPTKHLTEIQEWLCLNCQTQRA — higher, 0.193 ± 0.15
- TCPLCKTELNIGSKDPPNFNTCTECKNQVCNLCGFNPTLHLTEIQEWLCLNCQTQRA — within error, -0.001 ± 0.084
- TCPLCKTELNIGSKDPPNFNTCTECKNQVCNLCGFNPTQHLTEIQEWLCLNCQTQRA — within error, 0.099 ± 0.13
- TCPLCKTELNIGSKDPPNFNTCTECKNQVCNLCGFNPTRHLTEIQEWLCLNCQTQRA — within error, 0.008 ± 0.087
- TCPLCKTELNIGSKDPPNFNTCTECKNQVCNLCGFNPTSHLTEIQEWLCLNCQTQRA — within error, 0.069 ± 0.093
- TCPLCKTELNIGSKDPPNFNTCTECKNQVCNLCGFNPTTHLTEIQEWLCLNCQTQRA — within error, -0.005 ± 0.13
- TCPLCKTELNIGSKDPPNFNTCTECKNQVCNLCGFNPTVHLTEIQEWLCLNCQTQRA — within error, 0.092 ± 0.098
- TCPLCKTELNIGSKDPPNFNTCTECKNQVCNLCGFNPTWHLTEIQEWLCLNCQTQRA — within error, -0.303 ± 0.11
- TCPLCKTELNIGSKDPPNFNTCTECKNQVCNLCGFNPTYHLTEIQEWLCLNCQTQRA — within error, -0.131 ± 0.14
- TCPLCKTELNIGSKDPPNFNTCTECKNQVCNLCGFNPTPALTEIQEWLCLNCQTQRA — within error, 0.076 ± 0.11
- TCPLCKTELNIGSKDPPNFNTCTECKNQVCNLCGFNPTPCLTEIQEWLCLNCQTQRA — within error, 0.046 ± 0.13
- TCPLCKTELNIGSKDPPNFNTCTECKNQVCNLCGFNPTPELTEIQEWLCLNCQTQRA — within error, -0.065 ± 0.14
- TCPLCKTELNIGSKDPPNFNTCTECKNQVCNLCGFNPTPFLTEIQEWLCLNCQTQRA — within error, -0.105 ± 0.15
- TCPLCKTELNIGSKDPPNFNTCTECKNQVCNLCGFNPTPILTEIQEWLCLNCQTQRA — within error, -0.018 ± 0.18
- TCPLCKTELNIGSKDPPNFNTCTECKNQVCNLCGFNPTPKLTEIQEWLCLNCQTQRA — within error, -0.06 ± 0.14
- TCPLCKTELNIGSKDPPNFNTCTECKNQVCNLCGFNPTPLLTEIQEWLCLNCQTQRA — within error, -0.02 ± 0.088
- TCPLCKTELNIGSKDPPNFNTCTECKNQVCNLCGFNPTPMLTEIQEWLCLNCQTQRA — within error, 0.004 ± 0.13
- TCPLCKTELNIGSKDPPNFNTCTECKNQVCNLCGFNPTPPLTEIQEWLCLNCQTQRA — within error, 0.085 ± 0.13
- TCPLCKTELNIGSKDPPNFNTCTECKNQVCNLCGFNPTPQLTEIQEWLCLNCQTQRA — within error, -0.065 ± 0.18
- TCPLCKTELNIGSKDPPNFNTCTECKNQVCNLCGFNPTPRLTEIQEWLCLNCQTQRA — higher, 0.093 ± 0.087
- TCPLCKTELNIGSKDPPNFNTCTECKNQVCNLCGFNPTPSLTEIQEWLCLNCQTQRA — higher, 0.156 ± 0.094
- TCPLCKTELNIGSKDPPNFNTCTECKNQVCNLCGFNPTPTLTEIQEWLCLNCQTQRA — higher, 0.185 ± 0.14
- TCPLCKTELNIGSKDPPNFNTCTECKNQVCNLCGFNPTPVLTEIQEWLCLNCQTQRA — within error, 0.051 ± 0.1
- TCPLCKTELNIGSKDPPNFNTCTECKNQVCNLCGFNPTPWLTEIQEWLCLNCQTQRA — within error, -0.206 ± 0.13
- TCPLCKTELNIGSKDPPNFNTCTECKNQVCNLCGFNPTPYLTEIQEWLCLNCQTQRA — within error, -0.13 ± 0.15
- TCPLCKTELNIGSKDPPNFNTCTECKNQVCNLCGFNPTPHATEIQEWLCLNCQTQRA — higher, 0.117 ± 0.11
- TCPLCKTELNIGSKDPPNFNTCTECKNQVCNLCGFNPTPHCTEIQEWLCLNCQTQRA — within error, 0.004 ± 0.14
- TCPLCKTELNIGSKDPPNFNTCTECKNQVCNLCGFNPTPHDTEIQEWLCLNCQTQRA — within error, 0.004 ± 0.19
- TCPLCKTELNIGSKDPPNFNTCTECKNQVCNLCGFNPTPHETEIQEWLCLNCQTQRA — within error, -0.015 ± 0.15
- TCPLCKTELNIGSKDPPNFNTCTECKNQVCNLCGFNPTPHFTEIQEWLCLNCQTQRA — higher, 0.149 ± 0.12
- TCPLCKTELNIGSKDPPNFNTCTECKNQVCNLCGFNPTPHHTEIQEWLCLNCQTQRA — within error, -0.247 ± 0.2
- TCPLCKTELNIGSKDPPNFNTCTECKNQVCNLCGFNPTPHITEIQEWLCLNCQTQRA — within error, 0.188 ± 0.21
- TCPLCKTELNIGSKDPPNFNTCTECKNQVCNLCGFNPTPHKTEIQEWLCLNCQTQRA — higher, 0.176 ± 0.17
- TCPLCKTELNIGSKDPPNFNTCTECKNQVCNLCGFNPTPHMTEIQEWLCLNCQTQRA — within error, -0.189 ± 0.12
